The values below come from patent US20230012273A1 (Boehringer Ingelheim, published 2023).

The term EC50 denotes the concentration at which the effect is half-maximal. A lower EC50 goes with greater potency. The IC50 is the concentration that gives 50% inhibition.

Assay [1] has as its target ED-tagged human SIRPα V1 receptor on Jurkat signaling reporter cells (human, UniProt P78324 31-504). The assay can be described thus: cell-based or functional assay.
The target of assay [2] is ED-tagged human SIRPα V2 receptor on Jurkat signaling reporter cells (human, UniProt P78324 31-504). The assay is described as follows: cell-based or functional assay.
Assay [3] concerns the target T1, full-length human SIRPαV1 (NP_542970.1) on cells (human, UniProt P78324 31-504).
T1 construct: one molecule for CHO-K1 and Expi-CHO transfectants (NP_542970.1) and for endogenous V1 on U-937 cells and on CD14+ monocytes of V1/V1 donors; also called CHO-hSIRPαV1; αV1 WT
The assay can be described thus: flow cytometry, Expi-CHO cells. As for the experimental part: (§1) Expi-CHO parental cells are transduced with lentiviruses containing either full-length wild-type human SIRPαV1 allele (NP_542970.1) or full-length human SIRPαV1 with amino acid point mutations (Table 56) and sorted to achieve matching expression levels. These cells are blocked with donkey IgG and incubated on ice with increasing concentrations of antibodies for 60 minutes, washed and stained with AF647-conjugated donkey F(ab′)₂ anti-human IgG antibodies. Stained cells are washed, fixed, and analyzed by flow cytometry. Median fluorescent intensity is determined and used as a measure of antibody binding.
In general terms: In flow cytometry, cells or beads pass a laser one at a time.

The target of assay [4] is T2, full-length human SIRPαV1 N→E on Expi-CHO cells (human, UniProt P78324 31-504).
T2 construct: the entry already carries the change (TKRN to TKRE)
T2 sequence (P78324 31-504 N100E): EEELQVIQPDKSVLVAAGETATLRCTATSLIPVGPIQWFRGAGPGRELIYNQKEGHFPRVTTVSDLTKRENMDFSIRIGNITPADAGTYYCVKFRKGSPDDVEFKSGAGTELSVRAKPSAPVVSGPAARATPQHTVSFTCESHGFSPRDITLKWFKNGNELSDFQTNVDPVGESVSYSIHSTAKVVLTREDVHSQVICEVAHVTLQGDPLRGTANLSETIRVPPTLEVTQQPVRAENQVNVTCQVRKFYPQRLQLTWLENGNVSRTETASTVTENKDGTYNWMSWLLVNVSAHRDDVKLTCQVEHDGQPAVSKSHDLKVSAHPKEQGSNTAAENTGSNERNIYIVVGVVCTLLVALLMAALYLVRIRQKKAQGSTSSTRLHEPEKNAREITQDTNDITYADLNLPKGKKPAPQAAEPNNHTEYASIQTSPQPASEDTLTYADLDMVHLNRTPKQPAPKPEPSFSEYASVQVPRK
The assay is described as follows: flow cytometry, Expi-CHO cells. The procedure:
as §1

In assay [5] the target is T3, full-length human SIRPαV1 D→E on Expi-CHO cells (human, UniProt P78324 31-504).
T3 construct: the entry already carries the change (PDDV to PEDV)
T3 sequence (P78324 31-504 D130E): as the sequence (P78324 31-504 N100E) above, with E70N, D100E counted along it
The assay can be described thus: flow cytometry, Expi-CHO cells. The procedure: as §1

Assay [6] deals with T4, full-length human SIRPαV2 (CAA71403.1) on cells (human, UniProt P78324 31-504).
T4 construct: one molecule for CHO-K1 and Expi-CHO transfectants (CAA71403.1) and for endogenous V2 on THP-1 cells and on CD14+ monocytes of V2/V2 donors; also called CHO-hSIRPαV2; αV2 WT
T4 sequence (P78324 other isoform, or with tags, fused parts or gaps): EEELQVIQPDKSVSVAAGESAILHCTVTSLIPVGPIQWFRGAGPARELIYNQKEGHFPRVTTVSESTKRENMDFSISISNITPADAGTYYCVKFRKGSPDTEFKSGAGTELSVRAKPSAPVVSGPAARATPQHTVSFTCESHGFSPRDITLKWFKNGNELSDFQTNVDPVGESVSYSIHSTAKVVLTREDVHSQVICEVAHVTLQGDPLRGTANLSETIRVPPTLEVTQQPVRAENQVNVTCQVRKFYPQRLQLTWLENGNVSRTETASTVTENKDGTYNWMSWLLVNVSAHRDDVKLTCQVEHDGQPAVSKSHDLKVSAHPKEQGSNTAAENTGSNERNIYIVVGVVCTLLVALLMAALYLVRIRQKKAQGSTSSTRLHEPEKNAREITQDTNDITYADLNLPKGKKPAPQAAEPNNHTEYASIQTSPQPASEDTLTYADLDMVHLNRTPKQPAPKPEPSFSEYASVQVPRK
The assay can be described thus: flow cytometry, Expi-CHO cells. The procedure:
as §1, with “SIRPαV2” for “SIRPαV1”, “(CAA71403.1)” for “(NP_542970.1)”, “58)” for “56)”

Assay [7] deals with T5, full-length human SIRPαV2 E→N on Expi-CHO cells (human, UniProt P78324 31-504).
T5 construct: the entry already carries the change (TKRE to TKRN)
T5 sequence (P78324 other isoform, or with tags, fused parts or gaps): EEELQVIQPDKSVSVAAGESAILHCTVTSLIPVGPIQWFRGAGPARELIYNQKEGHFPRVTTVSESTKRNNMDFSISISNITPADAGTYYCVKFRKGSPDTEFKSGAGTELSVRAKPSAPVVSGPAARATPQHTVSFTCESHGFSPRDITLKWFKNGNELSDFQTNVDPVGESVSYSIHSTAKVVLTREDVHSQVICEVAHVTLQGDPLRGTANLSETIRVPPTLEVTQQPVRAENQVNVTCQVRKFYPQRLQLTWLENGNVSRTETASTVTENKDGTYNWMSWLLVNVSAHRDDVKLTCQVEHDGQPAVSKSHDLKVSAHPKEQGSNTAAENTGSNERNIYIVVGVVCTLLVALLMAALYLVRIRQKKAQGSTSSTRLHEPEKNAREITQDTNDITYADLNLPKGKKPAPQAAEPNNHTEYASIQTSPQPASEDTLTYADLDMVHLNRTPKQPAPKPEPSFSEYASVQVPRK
The assay is described as follows: flow cytometry, Expi-CHO cells. As for the experimental part:
as §1, with “SIRPαV2” for “SIRPαV1”, “(CAA71403.1)” for “(NP_542970.1)”, “58)” for “56)”

The target in assay [8] is T6, full-length human SIRPαV2 D→E on Expi-CHO cells (human, UniProt P78324 31-504).
T6 construct: the entry already carries the change (SPDT to SPET)
T6 sequence (P78324 other isoform, or with tags, fused parts or gaps): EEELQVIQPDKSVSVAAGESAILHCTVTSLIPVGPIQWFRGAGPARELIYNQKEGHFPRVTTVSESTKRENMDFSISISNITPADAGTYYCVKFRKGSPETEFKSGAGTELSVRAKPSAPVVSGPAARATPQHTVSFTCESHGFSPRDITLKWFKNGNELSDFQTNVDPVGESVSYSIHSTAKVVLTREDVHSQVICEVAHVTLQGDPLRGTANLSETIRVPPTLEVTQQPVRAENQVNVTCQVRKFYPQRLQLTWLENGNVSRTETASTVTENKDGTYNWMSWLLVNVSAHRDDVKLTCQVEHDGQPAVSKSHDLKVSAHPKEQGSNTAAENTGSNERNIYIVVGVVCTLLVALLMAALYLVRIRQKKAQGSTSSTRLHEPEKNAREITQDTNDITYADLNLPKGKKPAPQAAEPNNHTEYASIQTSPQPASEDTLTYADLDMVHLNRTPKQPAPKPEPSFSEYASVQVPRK
The assay can be described thus: flow cytometry, Expi-CHO cells. The procedure: as §1, with “SIRPαV2” for “SIRPαV1”, “(CAA71403.1)” for “(NP_542970.1)”, “58)” for “56)”

In assay [9] the target is T7, full-length human SIRPβL H→D on Expi-CHO cells (human, UniProt Q5TFQ8 30-398).
T7 construct: the entry already carries the change (PDHV to PDDV); also called βL WT H→D
T7 sequence (Q5TFQ8 30-398 H130D): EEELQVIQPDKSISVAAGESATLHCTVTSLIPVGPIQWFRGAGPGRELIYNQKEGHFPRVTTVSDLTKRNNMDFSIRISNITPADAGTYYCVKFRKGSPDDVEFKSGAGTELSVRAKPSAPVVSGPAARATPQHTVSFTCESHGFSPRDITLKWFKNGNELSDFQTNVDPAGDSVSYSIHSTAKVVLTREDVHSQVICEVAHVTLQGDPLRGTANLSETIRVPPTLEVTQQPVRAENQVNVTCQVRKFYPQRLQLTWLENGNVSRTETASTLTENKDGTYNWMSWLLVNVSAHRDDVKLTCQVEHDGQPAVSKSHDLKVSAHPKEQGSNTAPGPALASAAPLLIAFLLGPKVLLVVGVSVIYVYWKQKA
The assay can be described thus: flow cytometry, Expi-CHO cells. The procedure:
Expi-CHO parental cells are transduced with lentiviruses containing either full-length wild-type human SIRPβL (Q5TFQ8) or full-length human SIRPβL with a single amino acid point mutation (Table 62) and sorted to achieve matching expression levels. These cells are blocked with donkey IgG and incubated on ice with increasing concentrations of antibodies for 60 minutes, washed and stained with AF647-conjugated donkey F(ab′)₂ anti-human IgG antibodies. Stained cells are washed, fixed, and analyzed by flow cytometry. Median fluorescent intensity is determined and used as a measure of antibody binding.
A single amino acid substitution (H→D) introduced within the loop region maintained, strengthened, or facilitated antibody binding to these cells (FIG. 34B, Table 63).

Assay [10] addresses T1, full-length human SIRPαV1 (NP_542970.1) …. The assay can be described thus: flow cytometry, CD14+ monocytes V1V1. Summed up:
(§2)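 PBMCs from donors homozygous for SIRPα V1 or V2 were blocked with donkey IgG and incubated on ice for 60 minutes with increasing antibody concentrations. Bound antibody detected with AF647 donkey F(ab′)₂ anti-human IgG. Median fluorescence intensity of CD14+ cells served as the binding measure.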

Assay [11] deals with T4, full-length human SIRPαV2 (CAA71403.1) …. The assay is described as follows: flow cytometry, CD14+ monocytes V2V2. An outline of the steps:
as §2

The target in assay [12] is T1, full-length human SIRPαV1 (NP_542970.1) …. The assay is described as follows: flow cytometry, competition with CD47 tetramer, monocytes V1V1. The procedure: Cells are washed, fixed, and analyzed by flow cytometry. Median fluorescent intensity of CD14+gated population is determined and used as a measure of CD47 binding.
For assay [13], the target named is T8, full-length human SIRPβ1 D→H on Expi-CHO cells (human, UniProt O00241 30-398).
T8 construct: the entry already carries the change (PDDV to PDHV)
T8 sequence (O00241 30-398 D130H): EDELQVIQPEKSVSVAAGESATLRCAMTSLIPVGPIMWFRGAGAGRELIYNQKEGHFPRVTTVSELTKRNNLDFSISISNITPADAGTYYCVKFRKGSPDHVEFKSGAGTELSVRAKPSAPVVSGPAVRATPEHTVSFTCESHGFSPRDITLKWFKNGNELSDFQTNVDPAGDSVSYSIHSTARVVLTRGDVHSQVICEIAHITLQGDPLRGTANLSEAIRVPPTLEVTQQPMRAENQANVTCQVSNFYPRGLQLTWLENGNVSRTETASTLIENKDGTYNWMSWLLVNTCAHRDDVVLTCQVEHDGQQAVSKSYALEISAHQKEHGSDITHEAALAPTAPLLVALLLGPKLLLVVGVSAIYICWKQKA
The assay can be described thus: flow cytometry, Expi-CHO cells expressing full-length human SIRPβ1 D→H. The procedure:
These cells are blocked with donkey IgG and incubated on ice with increasing concentrations of antibodies for 60 minutes, washed and stained with AF647-conjugated donkey F(ab′)₂ anti-human IgG antibodies. Stained cells are washed, fixed, and analyzed by flow cytometry. Median fluorescent intensity is determined and used as a measure of antibody binding.

T1 sequence (P78324 31-504): as the sequence (P78324 31-504 N100E) above, with E70N counted along it

B1: Antibody E22 (antibody, human IgG1, kappa, L234A L235A, V domains shown)
VH: QVQLQESGPGLVKPSETLSLTCTVSGGSIRDYYWSWIRQPPGKGLEWIGFIYYNGRTFYQSSLKSRVTISLDTSKNQFSLKMTSVTAADTAVYYCARVRAYSGIGLDGTDVWGQGTTVTVSS
VL: DIVMTQSPLSLPVTPGEPASISCRSSQSLLYSTGYTYLDWYLQRPGQSPQLLIYGGSSRASGVPDRFSGSGSGTDFTLKISRVEAEDVGVFYCGQALQTPLTFGQGTKVEIKR
For the molecule B1, in assay [1], the “Blockade of Cellular CD47-Mediated SIRPα Signaling; IC50” value was 0.07 nM. Moreover, the “Blockade of Cellular CD47-Mediated SIRPα Signaling; IC50 (* Inhibition plateaus at <100%)” value in assay [2] came out at 0.07 nM. Further, the concentration giving a half-maximal response (EC50) in [3] was found to be 0.8 nM; in assay [4], 0.9 nM; in [5], 0.7 nM; in assay [6], 0.4 nM; in [7], 0.4 nM; in assay [8], 0.4 nM. The half-maximal effective concentration (EC50) in assay [9] was 0.7 nM; in assay [10] it was 0.8 nM; in [11] it was 0.4 nM. In assay [12], this molecule yielded a half-maximal inhibitory concentration (IC50) of 0.25 nM. The binding result in assay [13] is “no binding (tested: about 67 nM)”.
